Source: the DeepSol protein solubility set

Assay: soluble on expression in E. coli; label from the status in PepcDB or PDB records

| Sequence | soluble on expression in E. coli |
| --- | --- |
| MGSDKIHHHHHHMTFEQLLYAVELANHQTLQETADLLHISKSGLSQSISQLENELGVKLFKRTRYGSKLTAQGKELLPLIKQMLSQGVSLTKKAHNLGKSGQIETVRVAYANTMLKPFLNEYLAMYQDVPTKFNMEISQETVTQIIDGIRSHRINLGFIAINDSNKAEIHGLEFKPVHVGHLKLFLSPDNQLVKKQKINIEDLQKQRFALFNDPYNDRIFEHLQYLCGPLKTVIKTDDGWAMYTTIKKANAVALVRDWQTSYSSYEPLQKLPSLDISNLIDDRFYLGWLTNPKYTTSRYTHRYTQEFIKHVDAQIKEC | not soluble |
| MGSDKIHHHHHHMNADIKISFIDNIDKISASDWQNLNNSPCPFLRYNFFNALEKSESASAKQGWQAHHLVATNNNDVTAVMPMYLKSHSWGEYVFDWDWADAFKRNDIDYYPKLVATIPFTPVSSDKLLTSQGHVNELFEPLIEHCQQENINSWHILYCNEIRTALPEDVYQRNTVQFHWFNRDYETFDDFLNTFTSRKRKNTRKERLSIIEQEIDIRQLKNNEISQQDLEFFYLTYQLTYLKRGHQPHLSYEFFKQIVADMADNILLIIASHEQEDIACALFFYDDSQLYGRYWGCTKHYNNLHFELCYYRGIEFCIQNKLQSFNPGTQGEHKIQRGFEPVLTYSYHWVKHVPFRMAIKNFCQQEQQHMLTYQEQCQQVLPFRKI | not soluble |
| MSSGFGGEKEEEITQKTAKSSEKAIVPKYNISDSYYKMVLPFKAGKARGLTTEQLNTRLDIDEFETGLMRLAQDSFSTDDYLFQEGQYLDEDTVLSWLARKKTGSDLKKAEKEDKNFKNEGLNPALPSSGSTEEKNESSPIYLASMLEHDYLVRKDKNSIQLGGVMIGLALNSVYYYREKTGDPQKEVEIKDSTLRQQGEKIAQEVINRLRKKDNLKNVPITVALYKQASKTSIVPGNFIAKTEVKAGSTDISNWDDINEKYVFYPADTTTAEKYPDDTEVFKRFKNSIEEYFPNYTGVVGTALYENDEMKKMKIDIPMQFYGKSEVVAFTQFLTGEVMDYYSKSSVDVEVNITSSDGQEAVIIRNAGDKEPTVHIYDLEHHHHHH | soluble |
| MSHQCSLSELNENLVPFTARQIKSSLIWCAEDVRNPDELQNACSYIIDPGSTASAKVFHAERYGGSGIQRNGGGARCGFDGNYQVKGIGSNPLVGEGTDERHSNGALGAVHAIYEALWGEVLAQILPYSAVRVRAVLLTDLYTEKAFERSGRKSRRALLVREPVVRPAHFERAPYFQVKPEYSSLLIHDACRVRSVIHKLPGYLPVPPEEIDAEARTDPRIYCIEGLCELARREAWQMAFCRTRFLRLTTSPSNIAMDGRLMDFNGLSCLFPGDSPADFGYKLRLAELAKEPMVLMQGLSDLCLYIGKYMFDPDFTLAARLKVEEIFQKTFHEACYYCYLELLGIPGEFITQKEIPDILKELVNSFVALLNKYYEKSHAQDIVNQDGSPLQKLVVTLIHHRHNQKQALNSSIKNDVYFTVAQQCFSQAIHWLTQGSTRRQINASLLLKEIEHHTMKRLQPREELRKENMCEKIAILLDNHGDDPLFLQEAISDMKNFMLKFSRDAFGYLEPIRNTV | not soluble |
| MGSDKIHHHHHHMILSVSRRTDIPAFYSEWFFNRLKEGFVYVINPFNERKVSKVELNKETVDLFVFWTKDAEPMLKRLDELNEFKYYFQFTITSYRNDVERMTRKKKDIIDTFRILSKKIGKEKIIWRYDPIFLNDFYTKEYHYRWFERFCDKLEGYTDKCIISFLDLYKKTEINTRCLNIHKMDEKSMRQVAKQLSIIANKHNIIIETCSEGIDLSDYGIKKGSCIDKNLISKIIDFGVELKKDNNQRELCGCVKSVDIGQYNTCKHHCLYCYANFNEKLLNDSILKYNPKAPTLAYTLKGDEKITVREMESIKGNKQKQLDLFKNIKQGE | not soluble |
| SNAMTQSPIFLTPVFKEKIWGGTALRDRFGYSIPSESTGECWAISAHPKGPSTVANGPYKGKTLIELWEEHREVFGGVEGDRFPLLTKLLDVKEDTSIKVHPDDYYAGENEEGELGKTECWYIIDCKENAEIIYGHTARSKTELVTMINSGDWEGLLRRIKIKPGDFYYVPSGTLHALCKGALVLETQQNSDATYRVYDYDRLDSNGSPRELHFAKAVNAATVPHVDGYIDESTESRKGITIKTFVQGEYFSVYKWDINGEAEMAQDESFLICSVIEGSGLLKYEDKTCPLKKGDHFILPAQMPDFTIKGTCTLIVSHI | soluble |
| GHMSSTPSNQNIIPIIKKESIVSLFEKGIRQDGRKLTDYRPLSITLDYAKKADGSALVKLGTTMVLAGTKLEIDKPYEDTPNQGNLIVNVELLPLAYETFEPGPPDENAIELARVVDRSLRDSKALDLTKLVIEPGKSVWTVWLDVYVLDYGGNVLDACTLASVAALYNTKVYKVEQHSNGISVNKNEVVGKLPLNYPVVTISVAKVDKYLVVDPDLDEESIMDAKISFSYTPDLKIVGIQKSGKGSMSLQDIDQAENTARSTAVKLLEELKKHLGI | soluble |
| MQAGKPILYSYFRSSCSWRVRIALALKGIDYKTVPINLIKDGGQQFSKDFQALNPMKQVPTLKIDGITIHQSLAIIEYLEETRPTPRLLPQDPKKRASVRMISDLIAGGIQPLQNLSVLKQVGEEMQLTWAQNAITCGFNALEQILQSTAGIYCVGDEVTMADLCLVPQVANAERFKVDLTPYPTISSINKRLLVLEAFQVSHPCRQPDTPTELRA | soluble |
| MGSDKIHHHHHHMITIKKGLDLPITGEPSREISEHRPAHVALIGYDYVGMKPTMNVKEGDIVAKGQSVFEDKKRAGVIYTAPAAGKVVAIKRGERRVFESLVIAVDPNGAEVEFQRYDSQQLADLDSEVVETQLLASGEWTAFRTRPYSRAPEIGARPHAIFVTAMDTNPLAFDPMLLINEQLQAFNDGLAVLSTLSPKTFVCHHGNSQLTPVAKTAANNVTEYHSFAGKHPAGLAGTHIHFLHPIMRGTSVWTIGYQDVIAIGKLFTSGRLYTRRLLSLAGPAVSNPHVIATERGADIAALTKGNLTAGENRVISGSVLSGRQVFANIAYLGRFDNQVSVLAEGRERPAFHFFTPGANRFSKLPIYISQFFGGKKYNFTTTSNGSPRAMVPIGVYEEVMPQDYLPTQLLRALIVEDIVTAVDLGVLELDEEDLALCTFVSPGKYEFGDILRDNLTRIELEG | not soluble |
| MGSDKIHHHHHHMSGKNKSVADIMAVCQEMFEDLNFNYARKWKAAKEGRKVIGFLPVYSPIEMIHAAGCLPLGIFGGGDQMEVIHGDAYYQSYICRIPRSTIELGVTNRLDFVDGMIFPFVCDVIRNLSGIWKLMFPNVWSKFFDTPQNYDKSIGGTYYIQELQELKEGLETLTGRKISDADIQRSIGLYNENRRLIREVYAFRAKQPWLAPTSEVYVLMRAGLMMDVEEHNQMLKDYMAAAAKEDRPKRDNVRISIYGSFCEQPPLNLIKSIEMAGCYVVDDDYSLNNRFLMVDVPTTGNPLEALAITYLENSVETSCKYVPDGKVKGQFHVDAVKACGAEGVIYATPSFCDPALLDRPMVCNKLSEAGIPYIAFKYAENSGQMQPIREQAGTFADSIKLWS | not soluble |
| GTEDLYFQSHMTIAVTGSIATDHLMRFPGRFSEQLLPEHLHKVSLSFLVDDLVMHRGGVAGNMAFAIGVLGGEVALVGAAGADFADYRDWLKARGVNCDHVLISETAHTARFTCTTDVDMAQIASFYPGAMSEARNIKLADVVSAIGKPELVIIGANDPEAMFLHTEECRKLGLAFAADPSQQLARLSGEEIRRLVNGAAYLFTNDYEWDLLLSKTGWSEADVMAQIDLRVTTLGPKGVDLVEPDGTTIHVGVVPETSQTDPTGVGDAFRAGFLTGRSAGLGLERSAQLGSLVAVLVLESTGTQEWQWDYEAAASRLAGAYGEHAAAEIVAVLA | soluble |
| MKILAIINPISGIGSKSNIPSLIADVFAHDPHELFITYSQRAGHARELAAQAVEKHYDCVIAVGGDGTVNEIAQSLRYTDVVLGIVPKGSGNGLARALKLPLTVGKALEVIRAGHVRTIDCCEADSRPFFCTCGLGFDAEVSKKFAQAGSRGPITYARTMIESYLQNEPKEYKLTIDGKSFEEKAFLVTCANAPQYGNNAYIAPLADLEDGKMDVVIIRPFNPLEAPQLALQLFTKRINSNSNLDTYKAENLIIERETEGVMHLDGDPVMFGKRIEIRTYGRSLKVFATETYT | not soluble |
| MAHHHHHHMSANGKISVPEAVVNWLFKVIQPIYNDGRTTFHDSLALLDNFHSLRPRTRVFTHSDGTPQLLLSIYGTISTGEDGSSPHSIPVIMWVPSMYPVKPPFISINLENFDMNTISSSLPIQEYIDSNGWIALPILHCWDPAAMNLIMVVQELMSLLHEPPQDQAP | soluble |
| MNQTKLNQRLKQQQLFDIYGELLTKRQACYFNEYINLDLSMQEIADKYQVKKSSIHQHIKTCNLIFNRFEAKLQLFKKQQLRLKLYEKITDPQLREQLIKLR | soluble |
| MGSDKIHHHHHHMRETIREIQKVAYWLAIKGLSEANAGNISVRLDERPEGYEVKSVNEYGFDYDGPEMYLLITATGSRMREVYEDDSKICLLHVLPGKHYEILHGNGKPTSEFPTHLMIHAKFKEMNPEKKAIVHTHPLNLLTLMNLEEFQELLPKMMKIHPEVLIFFPQGISVVEFEKPGSVELGLKTVEKSEGKDAVLWDKHGVVAFGKDVAEAYDRVEILEKAAEILLRVLSLGRNPTGVPEGWL | not soluble |
| MSLSTFRSIEWKKDKLVLLDQRYLPEKTLYLELKTVDEVARAIKEMTVRGAPAIGVAAAYGMVLCVQKLSKNDDLIRELQKADDLLRASRPTAVNLFWALDRMKKIWQGFNGSLEDLKMILEKEATDIEREDVEINKQIAKNGVELVPFGAKIIHHCNTGSLATVDYGTALGVIRYAHEIGKKIHVFLDETRPRLQGARLSAWEMKELGIPHTIIVDGASGLVMKKFKIDLALVGADRIAANGDTANKIGTYNLAIVAKYHNVPLYVVAPTSTIDLKTPAGQDIPIEERSADEIRCVGNSQVAPQESPVFNPAFDVTPAELISGIITEKGIVYPPFKENLRKLFESAEGHHHHHH | soluble |
| MAHHHHHHMAAYGIVESPDNVDYKTKCCCQTTDGVYFQVPKEYFRLHANLSRRKLLIAEPFGVPLDSSAFESLVVLLEKAAIVSPAAATAGTEVVSKGDGAKQQWIKDLNKRQQKFVGACLGVTTWDGADVYFYEEKLPKESDVVWVKVIQVNDTSAVVQLLEYGNHEGIIPYTEITRIRIRAIGKVIKVGKNEAAQVIRIDKDKGYIDLSKKQVTLKEAKDCEARFFKGNEVRSVVCHVADECGVPPAEAMKRIAYPLYRRQPGKHAWEWLYELNQTKDVKGILGDLEISEAEIKVLMTTLEHTMRTEIATIHADIEMTCFQCDGVNALREVLLVGRDFKAGKDPLIPISVTIVGPPKYRLRAKTELKEEGIVRMKEAIEMMKIEMAKRGGILKVVAGPFVLGEEEHTKEERNEDAEDDEGEDTD | not soluble |
| MSLSNQLLLGMSEFGLSYIINFSEFNQHVLVPATTGSGKTTLLQLLVQHAVKFNFPVILIDGKGARDTLESMREIAKFYDKEVHAFTDDGDMRYNPVEHGNDISIRDKLVSLAETESVFYSGAAKALLQVTIQLLDEFKGAKVTLSGDTRTTETVERSLPFVQRFLLPRNVLHLFADAILPNNPKLFEIEVEKKIQKPKKKSVKEGSEILPDSDLDKEEKEEDSQIKNSKFRNISQLGIAQKETETIVLNPETLDLDSYYLLLKRNLRYLPTDKETGENIKQKLFERLFIRYEHKDSPFYLYATSEALQTNINMLLDSELGKLFDTKNAKNVLDVQEIVNQRKLVYVSFNGLIYKEYIRTLAQMLVGDVNYFASEMYRKNVKREVLVIFDEPASYLNETFIDMVNKGRGAGVYGIFTPQTMADIAKLGDKLMEQLVGNVNTLFIGKTNEKGEAEYWSETMGTYQDIDVTSVTEQEDGYSDVGKSDWSGDRGTKRNVDRFKISPNKIKELRTGEFIIYRTAENVNLPPQKVYVRNALEWLQKSNSEGHHHHHH | soluble |
| MAGDTTITVVGNLTADPELRFTPSGAAVANFTVASTPRMFDRQSGEWKDGEALFLRCNIWREAAENVAESLTRGSRVIVTGRLKQRSFETREGEKRTVVEVEVDEIGPSLRYATAKVNKASRSGGGGGGFGSGGGGSRQSEPKDDPWGSAPASGSFSGADDEPPF | soluble |
